Test in all cases: Kinetic parameters for hydrolysis of internally quenched fluorogenic peptides by secPHEX
Common to all, as to assay type: biochemical, human

Substrate in series [1]: CC[C@H](C)[C@H](NC(=O)[C@H](CCC(=O)O)NC(=O)[C@H](CC(N)=O)NC(=O)[C@H](CC(=O)O)NC(=O)[C@H](CC(C)C)NC(=O)CNC(=O)[C@H](CCCNC(=N)N)NC(=O)c1ccccc1N)C(=O)N[C@@H](CCC(N)=O)C(=O)NCCNc1ccc([N+](=O)[O-])cc1[N+](=O)[O-]
The settings on record: other: 37° C., 10 mM Bis-Tris buffer pH 5.5, 150 mM NaCl. As to the method:
(§1) The human recombinant secPHEX was obtained following the procedure previously described (17, WO 00/50580). Purified secPHEX concentration was determined using the Bradford method (DC protein assay kit; Bio-Rad, Mississauga, ON, Canada). Membrane-bound recombinant human PHEX was expressed in LLC-PK1 cells (17, (WO 00/50580)) and membranes were prepared essentially as described by Guo et al. (34). Briefly, transfected cells resuspended in lysis buffer (150 mM NaCl, 20 mM Tris.HCl, pH 7.6) were disrupted by sonication. Cell debris were removed by centrifugation at 300 g for 15 min at 4 °C. Membranes were collected by centrifugation at 30,000 g for 50 min and solubilized for 2h with 1% n-dodecyl-β-D-maltoside in lysis buffer. Insoluble material was pelleted by centrifugation at 10,000 g for 15 min and protein concentrations of the supernatant determined using the Bradford method described above. PHEX amounts were evaluated by immunoblotting as described previously (17). NEP expression and purification were performed as described previously (36).
(§2) The hydrolysis of the IQFPs, at 37° C., in 10 mM Bit-Tris buffer pH 5.5 (0.35 to 1.0 ml final volume) containing 150 mM NaCl, was continuously followed measuring the fluorescence at γem=420 nm and γex=320 nm in a Hitachi F-2000™ spectrofluorometer. The cuvefte containing the buffer and the substrate was placed in a thermostatically controlled cell compartment for 5 min before the addition of the enzyme and the increase in fluorescence with time was continuously recorded for 5-10 min. The enzyme concentration for initial rate determination was chosen at a level intended to hydrolyze less than 5% of the substrate present. The slope was converted into micromoles of substrate hydrolyzed per min based on a calibration curve obtained from complete hydrolysis of each peptide. The inner-filter effect was corrected using an empirical equation as previously described (43). The kinetic parameters Km and kcat were calculated by the non-linear regression data analysis Grafit program (42). The kcat/Km values were calculated as the ratio of these two determined parameters. The apparent second order rate constant kcat/Km (*kIt/Km) was determined under pseudo first-order conditions, where [S]<<Km. These determinations were performed in two different substrate concentrations and the errors were less than 5% for any obtained value.
(§3) To determine the position of cleavage in peptides of the IQFPs combinatorial libraries, the products resulting from hydrolysis by secPHEX were submitted to N-terminal amino acid sequencing in a PPSQ-23protein sequencer (Shimadzu Tokyo, Japan). The scissile bonds in the IQFPs secPHEX substrates derived from PTHrP107-139, FGF-23and MEPE were determined by amino acid sequencing and by MALDI-TOF™ mass spectrometry (TofSpec-E™, Micromass, Manchester, U.K.) after isolation of the fragments resulting from the hydrolysis by secPHEX by analytical HPLC.
(§4) The assays were performed at 37° C., in 10 mM Bis-Tris buffer pH 5.5, containing 150 mM NaCl. Measurements were made as described under the heading “Experimental Procedures” above. Cleavage sites are indicated as arrows (↓). The standard deviations of the kinetic constants were less than 5%.
(§5) The assays were performed at 37° C., in 10 mM Bis-Tris buffer pH 5.5, containing 150 mM NaCl. Measurements were made as described under the heading “Experimental Procedures” above. Cleavage sites are indicated by arrows (↓). The standard deviations of the kinetic constants were less than 5%.
(§6) The assays were. performed at 37° C., in 10 mM Bis-Tris buffer pH 5.5, containing 150 mM NaCl. Measurements were made as described under the heading “Experimental Procedures” above. Cleavage sites are indicated by arrows (↓). The standard deviations of the kinetic constants were less than 5%.
(§7) The assays were performed at 37° C., in 10 mM Bis-Tris buffer pH 5.5, containing 150 mM NaCl. Measurements were made as described under “Experimental Procedures”. […]

Substrate in series [2]: Nc1ccccc1C(=O)NCC(=O)N[C@@H](Cc1ccccc1)C(=O)N[C@@H](CO)C(=O)N[C@@H](CCC(=O)O)C(=O)N[C@@H](Cc1ccc(O)cc1)C(=O)N[C@@H](CCCCNc1ccc([N+](=O)[O-])cc1[N+](=O)[O-])C(=O)O
The following applies: other: 37° C., 10 mM Bis-Tris buffer pH 5.5, 150 mM NaCl, [S]<<Km. As to the method:
as §1, §2, §3, §4, §5, §6, §7

Substrate in series [3]: C[C@H](NC(=O)[C@H](CCC(N)=O)NC(=O)[C@H](CO)NC(=O)[C@H](CC(=O)O)NC(=O)[C@H](CCCNC(=N)N)NC(=O)[C@H](CCC(N)=O)NC(=O)[C@@H]1CCCN1C(=O)CNC(=O)c1ccccc1N)C(=O)N[C@@H](CCC(N)=O)C(=O)NCCNc1ccc([N+](=O)[O-])cc1[N+](=O)[O-]
The following applies: other: 37° C., 10 mM Bis-Tris buffer pH 5.5, 150 mM NaCl. The protocol: as §1, §2, §3, §4, §5, §6, §7

Substrate in series [4]: CC(C)C[C@H](NC(=O)[C@H](Cc1c[nH]cn1)NC(=O)[C@H](CC(=O)O)NC(=O)c1ccccc1N)C(=O)N[C@@H](CO)C(=O)N[C@@H](CC(=O)O)C(=O)N[C@H](C(=O)N[C@@H](CO)C(=O)N[C@H](C(=O)N[C@@H](CCC(N)=O)C(=O)NCCNc1ccc([N+](=O)[O-])cc1[N+](=O)[O-])[C@@H](C)O)[C@@H](C)O
The settings on record: other: 37° C., 10 mM Bis-Tris buffer pH 5.5, 150 mM NaCl. As to the method:
as §1, §2, §3, §4, §5, §6, §7

Marks after values point to notes of the source that are not given here.

B1: human recombinant secPHEX (Homo sapiens) (protein)
chain: SLQAKQEYCLKPECIEAAAAILSKVNLSVDPCDNFFRFACDGWISNNPIPEDMPSYGVYPWLRHNVDLKLKELLEKSISRRRDTEAIQKAKILYSSCMNEKAIEKADAKPLLHILRHSPFRWPVLESNIGPEGVWSERKFSLLQTLATFRGQYSNSVFIRLYVSPDDKASNEHILKLDQATLSLAVREDYLDNSTEAKSYRDALYKFMVDTAVLLGANSSRAEHDMKSVLRLEIKIAEIMIPHENRTSEAMYNKMNISELSAMIPQFDWLGYIKKVIDTRLYPHLKDISPSENVVVRVPQYFKDLFRILGSERKKTIANYLVWRMVYSRIPNLSRRFQYRWLEFSRVIQGTTTLLPQWDKCVNFIESALPYVVGKMFVDVYFQEDKKEMMEELVEGVRWAFIDMLEKENEWMDAGTKRKAKEKARAVLAKVGYPEFIMNDTHVNEDLKAIKFSEADYFGNVLQTRKYLAQSDFFWLRKAVPKTEWFTNPTTVNAFYSASTNQIRFPAGELQKPFFWGTEYPRSLSYGAIGVIVGHEFTHGFDNNGRKYDKNGNLDPWWSTESEEKFKEKTKCMINQYSNYYWKKAGLNVKGKRTLGENIADNGGLREAFRAYRKWINDRRQGLEEPLLPGITFTNNQLFFLSYAHVRCNSYRPEAAREQVQIGAHSPPQFRVNGAISNFEEFQKAFNCPPNSTMNRGMDSCRLW
notes: pure soluble form of PHEX (secPHEX); made in house
With B1, the values for the Km in series [1], in series [3] and in series [4] were 7.0 µM, 47.0 µM and 1.3 µM, respectively. Further, the figures for the kcat in series [1], in series [3] and in series [4] were 0.03 s⁻¹, 0.2 s⁻¹ and 0.1 s⁻¹, respectively. For the same protein, the kcat/Km (as a rule, the turnover number divided by the Michaelis constant) in series [1] was 4.3 mM⁻¹ s⁻¹; in series [2] it was 9.0* mM^−1 s^−1; in series [3], 4.3 mM⁻¹ s⁻¹; in series [4], 77.0 mM⁻¹ s⁻¹.

(Values after patent US20060292657A1, “Phex substrates and methods using same” (priority 2003, published 2006).)
